Assay: yeast display, Sf9 membrane polyspecificity reagent, FACS + sequencing; frameworks hold sequencing errors
Outline: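 Genes from sorted yeast were amplified by colony PCR, read by MiSeq 2 × 250 sequencing and filtered on CDR length. These cells carried a synthetic nanobody library in Saccharomyces cerevisiae BJ5465 and were sorted by FACS into low and high (top ~1%) gates on anti-HA and streptavidin fluorescence. Polyreactivity is labelled according to the gate of origin.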

Sequence	polyreactivity (PSR sort gate)
QVQLVESGGGLVQAGGSLRLSCAASGSTFPGNALGSYRQAPGKERELVAAIRDRGTSTYYADSVKGRFTISRDNAKNTFYLQMNSLKPEDTAVYYCAASSSNKEYDYWGQGTQVTVSS	high polyreactivity
QVQLVESGGGLVQAGGSLRLSCAASGSTFRGYAMGRYRQAPGKERELVAAITRNGGSTYYADSVKGRFTISRDNAKNTVYLQMNSLKPEDTAVFYCAAAKRRTVGVKYTFDYWGQGTQVTVSS	high polyreactivity
QVQLVESGGGLVQAGGSLRLSCAASFRYNDMGWYRQAPGKERELDAAISSGASTSYPDSVKGRFTISRDNAKNTVYLQMNSLKPEDSAVSYCAAETYELYGLNEYDYWGQGTQVTVSS	low polyreactivity
QVQLVESGGGLVQAGGSLRLSCAASGFTFNWYAMGWYRQAPGKERELVAAINSSGGNTYYADSVKGRFTISRDTAKNTVYLQMNSLKPDDTAVYYCVFVYVYDYYYWGQGTQVTVSS	high polyreactivity
QVQLVESGGGLVQAGGSLRLSCAASGIIFAWYAMGWYRQAPGKERELVAAINWSGGSTYYADSVKGRFTISRDNAKNTVYLQMNSLKPEDTAVYYCNADFQDRTDDYDYWGQGTQVTVSS	low polyreactivity
QVQLVESGGGLVQAGGSLRLSCAASGRIFSQNAMGWYRQAPGKEREVVAVISRGGSTNYADSVKGRFTISRDNAKNTVYLQMNSLKPEDTAVYYCAADYAYIRSVWKWFIGDYWGQGTQVTVSS	low polyreactivity
QVQLVESGGGLVQAGGSLRLSCAASGLILSSNARGWYRQAPGKETELVAAITWDGDRTYADSVKGRFTISRDNAKNTVYLQMNSLKPEDTAVYYCAAYPYYYYGYDYWGQGTQVTVSS	low polyreactivity
QVQLVESGGGLVQAGGSLRLSCAASGFTLWYNTMGWYRQAPGKERELVASITIGDSTSYADSVKGRFTISRDNAKNTVYLQMNSLKPEDTAVYYCNAEIALNSYDTYHRAADGYNYWGQGTQVTVSS	low polyreactivity
QVQLVESGGGLVQAGGSLRLSCAASGFTFKFNTMGWYRQAPGKERELVAANSWRGGDTSYADSVKGRFTISRENAKNTVFLQMYSLKPEDNAVYYCAARSTSIGQRSLHYGYWGQGTQVTVSS	low polyreactivity
QVQLVESGGGLVQAGGSLRLSCAASGSIFGEYAMGWYRQAPGKERELVATISWSAGSTYYADSVKGRFTISRDYAKNTVYLQMNSLKPEDTAVYYCAAAYDGYYLSTFDSWGQGTQVTVSS	low polyreactivity
QVQLVESGGGLVQAGGSLRLSCAASGFIFAYYAMGWYRQAPGKERELVAAITWSGGITYYADSVKGRFTISRDNAKNTVYLQMNSLKPEDTAVYYCNRAWSSHRYYYWGQGTQVTVSS	high polyreactivity
QVQLVESGGGLVQAGGSLRLSCAASGRISRLYAMGWYRQAPGKERELVAAITDSGGSTYYADSVKGRFTISRDNAKNTVYLHMNSLKPEDTAVYDCAATWSNWYREYYYWGQGTQVTVSS	high polyreactivity
QVQLVESGGGLVQAGGSLRLSCAASGFTFWTYAMGWYRQAPGKERELVAAIDSGGSTYYADSVKGRFTISRDNAKNTVYLQMNSLKPEDTAVYYCAKDVLAPYSRHDYWGQGTQVTVSS	low polyreactivity
QVQLVESGGGLVQAGGSLRLSCAASGSILRSYAMGWYRQAPGKERELVAVINGSGGRTYYADSVKGRFTISRDNAKNTVYLQMNSLKPEDTAVYYCNKRYRFTGIRDPFDYWGQGTQVTVSS	low polyreactivity
QVQLVESGGGLVQAGGSLRLSCAASGRIFYINAMGWYRQAPGKERELVAAISWSGSSTYYADSVKGRFTISRDNAKNTIYLQMNSLKPEDTAVYYCATVYYDNHYSAGYDYRGQGTQVTVSS	high polyreactivity
QVQLVESGGGLVQAGGSLRLSCADSGITLYEYAMGWYRKAPGKERELVAAISTSGGRTRYADSVKGRFTISRDNAKNTVYLQMNSLKPEDTAVYYCAASGFVQISNPRRDYWGLGTQVTVSS	high polyreactivity
QVQLVESGGGLVQAGGSLRLSCAASGFIFFVNAMGWSRQAPGKEREFVATITGSGGSTYYADSVKGRFTISRDNAKNTVYLQMNSLKPEDTAVYYCAADSLTPKSASDYWGQGTQVTVSS	low polyreactivity
